The values below come from publication PMC6232179.

The target of the test is His-tagged ER luminal domain of IRE1α (IRE1-NLD-His6-KDEL). As to the kind of experiment: SPR; IRE1-NLD amine-coupled on a CM5 chip (~1500 RU); COX-2 flowed at 0 to 10000 nM in 10 mM Hepes pH 7.4, 150 mM NaCl, 0.005% P20, 30 µl/min; BIACore T200; triplicate. (In general: Surface plasmon resonance follows binding to a sensor surface in real time, without labels.)

B1: COX-2 (prostaglandin endoperoxide synthase 2, PTGS2), purified His-tagged protein (enzyme)
chain: ANPCCSHPCQNRGVCMSVGFDQYKCDCTRTGFYGENCSTPEFLTRIKLFLKPTPNTVHYILTHFKGFWNVVNNIPFLRNAIMSYVLTSRSHLIDSPPTYNADYGYKSWEAFSNLSYYTRALPPVPDDCPTPLGVKGKKQLPDSNEIVEKLLLRRKFIPDPQGSNMMFAFFAQHFTHQFFKTDHKRGPAFTNGLGHGVDLNHIYGETLARQRKLRLFKDGKMKYQIIDGEMYPPTVKDTQAEMIYPPQVPEHLRFAVGQEVFGLVPGLMMYATIWLREHNRVCDVLKQEHPEWGDEQLFQTSRLILIGETIKIVIEDYVQHLSGYHFKLKFDPELLFNKQFQYQNRIAAEFNTLYHWHPLLPDTFQIHDQKYNYQQFIYNNSILLEHGITQFVESFTRQIAGRVAGGRNVPPAVQKVSQASIDQSRQMKYQSFNEYRKRFMLKPYESFEELTGEKEMSAELEALYGDIDAVELYPALLVEKPRPDAIFGETMVEVGAPFSLKGLMGNVICSPAYWKPSTFGGEVGFQIINTASIQSLICNNVKGCPFTSFSVPDPELIKTVTINASSSRSGLDDINPTVLLKERSTEL
modifications: red fluorescent tag, covalently labelled (only in the MST of Figure 4B)
What is called Kd is the concentration at which binding is half-saturated. A low value points to tighter binding. Molecule B1 registered a Kd of 880 nM.
